Like-named read-outs stand apart in the source and are kept apart here.

With Mps1: K86R, the expression_or_secretion result (ubiquitination at K86) was “increases”.

For Mps1: K827R, where the note is “ubiquitination at K827”, the expression_or_secretion result is listed as “increases”.

Turning to Mps1: K848R, the expression_or_secretion entry (ubiquitination at K848) is reported as “increases”.

On to Mps1: RRR (K86R, K827R, K848R), for which the expression_or_secretion entry (ubiquitination at K86) is listed as “increases”, the expression_or_secretion result (ubiquitination at K827) is on record as “increases” and the expression_or_secretion entry (ubiquitination at K848) is listed as “increases”.

The record behind these values is article PMC8578495.
